In article PMC6298231:

Target: Thrombospondin-1, full-length 185 kDa protein released by endothelial cells (human (endogenous in microvascular endothelial cells)) (UniProt P07996)
Test: non-reducing SDS-PAGE with immunoblot

stoichiometry N: 3
Substance: Thrombospondin-1, full-length 185 kDa protein released by endothelial cells (from UniProt P07996 19-1170) (natural protein)
